These results are taken from paper PMC12858348, “Structural basis underlying the autoinhibition of the formin FHOD1 and its phosphorylation-dependent activation” (The Journal of Biological Chemistry, 2025).

First the molecules themselves.
B1: His-tagged FHOD1-N3 (1–360) [human] / GST-fused FHOD1–DAD (1081–1145) [human] (parent complex)
chain 1: MAGGEDRGDGEPVSVVTVRVQYLEDTDPFACANFPEPRRAPTCSLDGALPLGAQIPAVHRLLGAPLKLEDCALQVSPSGYYLDTELSLEEQREMLEGFYEEISKGRKPTLILRTQLSVRVNAILEKLYSSSGPELRRSLFSLKQIFQEDKDLVPEFVHSEGLSCLIRVGAAADHNYQSYILRALGQLMLFVDGMLGVVAHSDTIQWLYTLCASLSRLVVKTALKLLLVFVEYSENNAPLFIRAVNSVASTTGAPPWANLVSILEEKNGADPELLVYTVTLINKTLAALPDQDSFYDVTDALEQQGMEALVQRHLGTAGTDVDLRTQLVLYENALKLEDGDIEEAPGAGGRRERRKPSSEE
chain 2: MPTVGPSTASPEEPPGSSLPSDTSDEIMDLLVQSVTKSSPRALAARERKRSRGNRKSLRRTLKSG

The variants in the first assay derive from B1. The assay is described as follows: GST pull-down, SDS-PAGE, CBB staining, band quantification; parent: 100; read off a plot.
Turning to chain 2 V32A, the percent of parent is approximately 95%.

In the case of chain 2 L31A, the percent of parent is approximately 97%.

On to chain 2 M28A, for which the percent of parent is approximately 97%.

In the case of chain 2 V35A, the percent of parent was approximately 96%.

Another assay covers variants of B1. The assay is described as above. The source holds these as a separate data set.
With chain 2 R59E, the percent of parent is approximately 18%.

As for chain 2 R48D, the percent of parent was approximately 26%.

Take chain 2 S51D, chain 2 S57D, chain 2 T61D: the percent of parent is approximately 6%.

Consider chain 2 R55D, for which the percent of parent is approximately 16%.

The variants in a further assay derive from B1. The assay is described as above. The source holds these as a separate data set.
Consider chain 1 D290R, for which the percent of parent is approximately 52%.

Consider chain 1 E331A, for which the percent of parent was approximately 28%.

With chain 1 D292R, the percent of parent was approximately 66%.

As to chain 1 D296R, the percent of parent is approximately 66%.
